Assay results as given in publication PMC9481464.

Biological target: GTP
Assay: GTP pull-down, quantified blot
Conditions: + Mg2+; co-expressed with HA-RagC S75N; read off a plot

response (relative to RagBlong Q127L (set to 1))	Substance
1	RagB^long (from UniProt Q5VZM2) Q127L
0.9	RagB^long (from UniProt Q5VZM2) Q127L; D96A
1.8	RagB^long (from UniProt Q5VZM2) Q127L; L94A
